Reference: PMC12366639

Substrate: CC=O
Assay: purified protein
Assay type: biochemical, Homo sapiens
Conditions: NAD+

B1: aldehyde dehydrogenase 2 (ALDH2) (Homo sapiens) (protein)
chain: SAAATQAVPAPNQQPEVFCNQIFINNEWHDAVSRKTFPTVNPSTGEVICQVAEGDKEDVDKAVKAARAAFQLGSPWRRMDASHRGRLLNRLADLIERDRTYLAALETLDNGKPYVISYLVDLDMVLKCLRYYAGWADKYHGKTIPIDGDFFSYTRHEPVGVCGQIIPWNFPLLMQAWKLGPALATGNVVVMKVAEQTPLTALYVANLIKEAGFPPGVVNIVPGFGPTAGAAIASHEDVDKVAFTGSTEIGRVIQVAAGSSNLKRVTLELGGKSPNIIMSDADMDWAVEQAHFALFFNQGQCCCAGSRTFVQEDIYDEFVERSVARAKSRVVGNPFDSKTEQGPQVDETQFKKILGYINTGKQEGAKLLCGGGIAADRGYFIQPTVFGDVQDGMTIAKEEIFGPVMQILKFKTIEEVVGRANNSTYGLAAAVFTKDLDKANYLSQALQAGTVWVNCYDVFGAQSPFGGYKMSGSGRELGEYGLQAYTEVKTVTVKVPQKNS
Work on B1 yielded a Km of 1.8 µM.
